Results from patent US20220105163A1 (UNITED BIOMEDICAL, published 2022).

Tests used:
[1] = target: T1, Recombinant His-tagged human IL-6Rα (human, UniProt P08887 20-365, limits assumed); assay: competition ELISA: inhibition of IL-6 binding to coated IL-6Rα (cis-binding)
T1 construct: Bought from GenScript; also called sIL-6Rα; not shown: His tag
T1 sequence (looked up): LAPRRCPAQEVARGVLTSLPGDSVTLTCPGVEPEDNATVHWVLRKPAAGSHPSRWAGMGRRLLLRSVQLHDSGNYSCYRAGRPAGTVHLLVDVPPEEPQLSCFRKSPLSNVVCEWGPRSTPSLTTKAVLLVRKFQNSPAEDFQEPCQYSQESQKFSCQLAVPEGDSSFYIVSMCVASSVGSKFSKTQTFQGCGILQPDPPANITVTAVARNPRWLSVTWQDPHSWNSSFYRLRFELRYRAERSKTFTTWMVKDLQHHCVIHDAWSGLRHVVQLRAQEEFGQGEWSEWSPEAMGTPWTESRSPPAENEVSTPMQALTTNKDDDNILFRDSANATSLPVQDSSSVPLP

[2] = target: T1, Recombinant His-tagged human IL-6Rα; assay: competition ELISA: inhibition of IL-6/IL-6Rα complex binding to coated gp130-Fc (trans-binding)

B1: Tocilizumab (antibody, V domains shown)
VH: QVQLQESGPGLVRPSQTLSLTCTVSGYSITSDHAWSWVRQPPGRGLEWIGYISYSGITTYNPSLKSRVTMLRDTSKNQFSLRLSSVTAADTAVYYCARSLARTTAMDYWGQGSLVTVSS
VL: DIQMTQSPSSLSASVGDRVTITCRASQDISSYLNWYQQKPGKAPKLLIYYTSRLHSGVPSRFSGSGSGTDFTFTISSLQPEDIATYYCQQGNTLPYTFGQGTKVEIKR
- IC50 [1]: 0.935 µg/mL
- IC50 [2]: 0.1 µg/mL
